Literature values, collected in patent US9394339B2, “Stabilized formulations of peptides and proteins protecting against non-enzymatic degradation” (Lyotropic Therapeutics, Inc., priority 2007, dated 2016).

B1: Uroporphyrinogen decarboxylase (1URO): human protein (protein, UniProt P06132 1-367, looked up)
Uroporphyrinogen decarboxylase: MEANGLGPQGFPELKNDTFLRAAWGEETDYTPVWCMRQAGRYLPEFRETRAAQDFFSTCRSPEACCELTLQPLRRFPLDAAIIFSDILVVPQALGMEVTMVPGKGPSFPEPLREEQDLERLRDPEVVASELGYVFQAITLTRQRLAGRVPLIGFAGAPWTLMTYMVEGGGSSTMAQAKRWLYQRPQASHQLLRILTDALVPYLVGQVVAGAQALQLFESHAGHLGPQLFNKFALPYIRDVAKQVKARLREAGLAPVPMIIFAKDGHFALEELAQAGYEVVGLDWTVAPKKARECVGKTVTLQGNLDPCALYASEEEIGQLVKQMLDDFGPHRYIANLGHGLYPDMDPEHVGAFVDAVHKHSRLLRQN
B2: Ribonuclease 4 (1RNF): human protein (protein, UniProt P34096 29-147, looked up)
Ribonuclease 4: QDGMYQRFLRQHVHPEETGGSDRYCNLMMQRRKMTLYHCKRFNTFIHEDIWNIRSICSTTNIQCKNGKMNCHEGVVKVTDCRDTGSSRAPNCRYRAIASTRRVVIACEGNPQVPVHFDG
B3: -Lactalbumin (1B9O): human protein (protein, UniProt P00709 20-142, looked up)
Alpha-lactalbumin: KQFTKCELSQLLKDIDGYGGIALPELICTMFHTSGYDTQAIVENNESTEYGLFQISNKLWCKSSQVPQSRNICDISCDKFLDDDITDDIMCAKKILDIKGIDYWLAHKALCTEKLEQWLCEKL
B4: Procarboxypeptidase A2 (1AYE): human protein (protein, UniProt P48052 19-419, looked up)
pro-form: LETFVGDQVLEIVPSNEEQIKNLLQLEAQEHLQLDFWKSPTTPGETAHVRVPFVNVQAVKVFLESQGIAYSIMIEDVQVLLDKENEEMLFNRRRERSGNFNFGAYHTLEEISQEMDNLVAEHPGLVSKVNIGSSFENRPMNVLKFSTGGDKPAIWLDAGIHAREWVTQATALWTANKIVSDYGKDPSITSILDALDIFLLPVTNPDGYVFSQTKNRMWRKTRSKVSGSLCVGVDPNRNWDAGFGGPGASSNPCSDSYHGPSANSEVEVKSIVDFIKSHGKVKAFITLHSYSQLLMFPYGYKCTKLDDFDELSEVAQKAAQSLRSLHGTKYKVGPICSVIYQASGGSIDWSYDYGIKYSFAFELRDTGRYGFLLPARQILPTAEETWLGLKAIMEHVRDHPY
modifications: pro-form
B5: Electron transfer flavoprotein (1EFV): human protein (protein, UniProt P13804 20-333; P38117 2-255, looked up)
Electron transfer … 1: QSTLVIAEHANDSLAPITLNTITAATRLGGEVSCLVAGTKCDKVAQDLCKVAGIAKVLVAQHDVYKGLLPEELTPLILATQKQFNYTHICAGASAFGKNLLPRVAAKLEVAPISDIIAIKSPDTFVRTIYAGNALCTVKCDEKVKVFSVRGTSFDAAATSGGSASSEKASSTSPVEISEWLDQKLTKSDRPELTGAKVVVSGGRGLKSGENFKLLYDLADQLHAAVGASRAAVDAGFVPNDMQVGQTGKIVAPELYIAVGISGAIQHLAGMKDSKTIVAINKDPEAPIFQVADYGIVADLFKVVPEMTEILKKK
Electron transfer … 2: AELRVLVAVKRVIDYAVKIRVKPDRTGVVTDGVKHSMNPFCEIAVEEAVRLKEKKLVKEVIAVSCGPAQCQETIRTALAMGADRGIHVEVPPAEAERLGPLQVARVLAKLAEKEKVDLVLLGKQAIDDDCNQTGQMTAGFLDWPQGTFASQVTLEGDKLKVEREIDGGLETLRLKLPAVVTADLRLNEPRYATLPNIMKAKKKKIEVIKPGDLGVDLTSKLSVISVEDPPQRTAGVKVETTEDLVAKLKEIGRI
B6: Phenylalanine hydroxylase (1DMW): human protein (protein, UniProt P00439 1-452, looked up)
Phenylalanine-4-hydroxylase: MSTAVLENPGLGRKLSDFGQETSYIEDNCNQNGAISLIFSLKEEVGALAKVLRLFEENDVNLTHIESRPSRLKKDEYEFFTHLDKRSLPALTNIIKILRHDIGATVHELSRDKKKDTVPWFPRTIQELDRFANQILSYGAELDADHPGFKDPVYRARRKQFADIAYNYRHGQPIPRVEYMEEEKKTWGTVFKTLKSLYKTHACYEYNHIFPLLEKYCGFHEDNIPQLEDVSQFLQTCTGFRLRPVAGLLSSRDFLGGLAFRVFHCTQYIRHGSKPMYTPEPDICHELLGHVPLFSDRSFAQFSQEIGLASLGAPDEYIEKLATIYWFTVEFGLCKQGDSIKAYGAGLLSSFGELQYCLSEKPKLLPLELEKTAIQNYTVTEFQPLYYVAESFNDAKEKVRNFAATIPRPFSVRYDPYTQRIEVLDNTQQLKILADSINSEIGILCSALQKIK
B7: Neutrophil (gelatinase) (1DFV): human protein (protein, UniProt P80188 21-198, looked up)
Neutrophil …: QDSTSDLIPAPPLSKVPLQQNFQDNQFQGKWYVVGLAGNAILREDKDPQKMYATIYELKEDKSYNVTSVLFRKKKCDYWIRTFVPGCQPGEFTLGNIKSYPGLTSYLVRVVSTNYNQHAMVFFKKVSQNREYFKITLYGRTKELTSELKENFIRFSKSLGLPENHIVFPVPIDQCIDG
B8: O6-alkylguanine-DNA alkyltransferase (1EH6): human protein (protein, UniProt P16455 1-207, looked up)
Methylated-DNA--protein-cystei …: MDKDCEMKRTTLDSPLGKLELSGCEQGLHEIKLLGKGTSAADAVEVPAPAAVLGGPEPLMQCTAWLNAYFHQPEAIEEFPVPALHHPVFQQESFTRQVLWKLLKVVKFGEVISYQQLAALAGNPKAARAVGGAMRGNPVPILIPCHRVVCSSGAVGNYSGGLAVKEWLLAHEGHRLGKPGLGGSSGLAGAWLKGAGATSGSPPAGRN
B9: Quinone reductase type 2 (1QR2): human protein (protein, UniProt P16083 1-231, looked up)
Ribosyldihydronicotinamide …: MAGKKVLIVYAHQEPKSFNGSLKNVAVDELSRQGCTVTVSDLYAMNLEPRATDKDITGTLSNPEVFNYGVETHEAYKQRSLASDITDEQKKVREADLVIFQFPLYWFSVPAILKGWMDRVLCQGFAFDIPGFYDSGLLQGKLALLSVTTGGTAEMYTKTGVNGDSRYFLWPLQHGTLHFCGFKVLAPQISFAPEIASEEERKGMVAAWSQRLQTIWKEEPIPCTAHWHFGQ
B10: Eosinophil cationic protein (1QMT): human protein (protein, UniProt P12724 28-160, looked up)
Eosinophil cationic protein: RPPQFTRAQWFAIQHISLNPPRCTIAMRAINNYRWRCKNQNTFLRTTFANVVNVCGNQSIRCPHNRTLNNCHRSRFRVPLLHCDLINPGAQNISNCTYADRPGRRFYVVACDNRDPRDSPRYPVVPVHLDTTI
B11: Ribonuclease inhibitor (1A4Y): human protein (protein, UniProt P13489 2-461, looked up)
Ribonuclease inhibitor: SLDIQSLDIQCEELSDARWAELLPLLQQCQVVRLDDCGLTEARCKDISSALRVNPALAELNLRSNELGDVGVHCVLQGLQTPSCKIQKLSLQNCCLTGAGCGVLSSTLRTLPTLQELHLSDNLLGDAGLQLLCEGLLDPQCRLEKLQLEYCSLSAASCEPLASVLRAKPDFKELTVSNNDINEAGVRVLCQGLKDSPCQLEALKLESCGVTSDNCRDLCGIVASKASLRELALGSNKLGDVGMAELCPGLLHPSSRLRTLWIWECGITAKGCGDLCRVLRAKESLKELSLAGNELGDEGARLLCETLLEPGCQLESLWVKSCSFTAACCSHFSSVLAQNRFLLELQISNNRLEDAGVRELCQGLGQPGSVLRVLWLADCDVSDSSCSSLAATLLANHSLRELDLSNNCLGDAGILQLVESVRQPGCLLEQLVLYDIYWSEEMEDRLQALEKDKPSLRVIS
B12: Thioltransferase (1JHB): human protein (protein, UniProt P35754 2-106, looked up)
Glutaredoxin-1: AQEFVNCKIQPGKVVVFIKPTCPYCRRAQEILSQLPIKQGLLEFVDITATNHTNEIQDYLQQLTGARTVPRVFIGKDCIGGCSDLVSLQQSGELLTRLKQIGALQ
B13: Lithostathine (1LIT): human protein (protein, UniProt P05451 23-166, looked up)
Lithostathine-1-alpha: QEAQTELPQARISCPEGTNAYRSYCYYFNEDRETWVDADLYCQNMNSGNLVSVLTQAEGAFVASLIKESGTDDFNVWIGLHDPKKNRRWHWSSGSLVSYKSWGIGAPSSVNPGYCVSLTSSTGFQKWKDVPCEDKFSFVCKFKN
B14: Phosphatidylethanolamine binding protein (1BD9): human protein (protein, UniProt P30086 2-187, looked up)
Phosphatidylethanolamine-bindi …: PVDLSKWSGPLSLQEVDEQPQHPLHVTYAGAAVDELGKVLTPTQVKNRPTSISWDGLDSGKLYTLVLTDPDAPSRKDPKYREWHHFLVVNMKGNDISSGTVLSDYVGSGPPKGTGLHRYVWLVYEQDRPLKCDEPILSNRSGDHRGKFKVASFRKKYELRAPVAGTCYQAEWDDYVPKLYEQLSGK
B15: Thymidylate synthase (1HW3): human protein (protein, UniProt P04818 2-313, looked up)
Thymidylate synthase: PVAGSELPRRPLPPAAQERDAEPRPPHGELQYLGQIQHILRCGVRKDDRTGTGTLSVFGMQARYSLRDEFPLLTTKRVFWKGVLEELLWFIKGSTNAKELSSKGVKIWDANGSRDFLDSLGFSTREEGDLGPVYGFQWRHFGAEYRDMESDYSGQGVDQLQRVIDTIKTNPDDRRIIMCAWNPRDLPLMALPPCHALCQFYVVNSELSCQLYQRSGDMGLGVPFNIASYALLTYMIAHITGLKPGDFIHTLGDAHIYLNHIEPLKIQLQREPRPFPKLRILRKVEKIDDFKAEDFQIEGYNPHPTIKMEMAV
B16: Glucosamine-6-phosphate deaminase isomerase (1D9T): human protein (protein, UniProt P46926 1-289, looked up)
Glucosamine-6-phosphate …: MKLIILEHYSQASEWAAKYIRNRIIQFNPGPEKYFTLGLPTGSTPLGCYKKLIEYYKNGDLSFKYVKTFNMDEYVGLPRDHPESYHSFMWNNFFKHIDIHPENTHILDGNAVDLQAECDAFEEKIKAAGGIELFVGGIGPDGHIAFNEPGSSLVSRTRVKTLAMDTILANARFFDGELTKVPTMALTVGVGTVMDAREVMILITGAHKAFALYKAIEEGVNHMWTVSAFQQHPRTVFVCDEDATLELKVKTVKYFKGLMLVHNKLVDPLYSIKEKETEKSQSSKKPYSD

Details: aqueous solution, pH 7.4, 37° C., Tris-HCl buffer

First: B1
Second: B2
The “T1/10 (time to 10% degradation by deamidation)” value of the first is lower: 0.15 days for the first, 20 days for the second.

First: B3
Second: B4
The “T1/10 (time to 10% degradation by deamidation)” value of the first is lower: 20 days for the first, 23 days for the second.

Going from B5 to B6, the “T1/10 (time to 10% degradation by deamidation)” value rises from 29 days to 33 days.

Going from B7 to B8, the “T1/10 (time to 10% degradation by deamidation)” value rises from 44 days to 46 days.

First: B9
Second: B10
The “T1/10 (time to 10% degradation by deamidation)” value of the first is lower: 50 days for the first, 65 days for the second.

Going from B11 to B12, the “T1/10 (time to 10% degradation by deamidation)” value rises from 68 days to 71 days.

Going from B13 to B14, the “T1/10 (time to 10% degradation by deamidation)” value rises from 74 days to 100 days.

For B15, the “T1/10 (time to 10% degradation by deamidation)” value is given as 0.41 days.

Same assay, conditions: buffer, pH 7.4

For B16, the “T1/2 (half-life, deamidation)” value is given as 320 days.

Same assay, conditions: pH 7.4

In the case of B16, the “T1/10 (time to 10% degradation by deamidation)” value is given as 49 days.

Same assay, conditions: pH 7.4, 37° C., […] Tris.HCl buffer

In the case of B1, the “time to lose 10% potency” value is listed as “about 3.6 hours”.
